T1: SELL (L-Selectin)
T1 construct: coated protein in the ELISA; also called SELL-Fc-His (R&D Systems)
T1 chain: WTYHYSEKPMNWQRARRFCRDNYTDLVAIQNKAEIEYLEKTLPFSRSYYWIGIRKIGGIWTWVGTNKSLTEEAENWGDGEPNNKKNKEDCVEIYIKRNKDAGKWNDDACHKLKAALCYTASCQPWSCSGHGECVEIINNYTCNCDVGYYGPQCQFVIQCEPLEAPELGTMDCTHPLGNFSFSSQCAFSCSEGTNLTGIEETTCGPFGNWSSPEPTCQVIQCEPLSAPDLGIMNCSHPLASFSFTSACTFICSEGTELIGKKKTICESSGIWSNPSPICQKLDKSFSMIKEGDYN

T2: GARS, endogenous in H929 multiple myeloma cells (human, UniProt P41250 37-739, limits assumed)
T2 construct: Native protein pulled down from H929 lysates; also called Glycyl-tRNA synthetase; GlyRS
T2 sequence: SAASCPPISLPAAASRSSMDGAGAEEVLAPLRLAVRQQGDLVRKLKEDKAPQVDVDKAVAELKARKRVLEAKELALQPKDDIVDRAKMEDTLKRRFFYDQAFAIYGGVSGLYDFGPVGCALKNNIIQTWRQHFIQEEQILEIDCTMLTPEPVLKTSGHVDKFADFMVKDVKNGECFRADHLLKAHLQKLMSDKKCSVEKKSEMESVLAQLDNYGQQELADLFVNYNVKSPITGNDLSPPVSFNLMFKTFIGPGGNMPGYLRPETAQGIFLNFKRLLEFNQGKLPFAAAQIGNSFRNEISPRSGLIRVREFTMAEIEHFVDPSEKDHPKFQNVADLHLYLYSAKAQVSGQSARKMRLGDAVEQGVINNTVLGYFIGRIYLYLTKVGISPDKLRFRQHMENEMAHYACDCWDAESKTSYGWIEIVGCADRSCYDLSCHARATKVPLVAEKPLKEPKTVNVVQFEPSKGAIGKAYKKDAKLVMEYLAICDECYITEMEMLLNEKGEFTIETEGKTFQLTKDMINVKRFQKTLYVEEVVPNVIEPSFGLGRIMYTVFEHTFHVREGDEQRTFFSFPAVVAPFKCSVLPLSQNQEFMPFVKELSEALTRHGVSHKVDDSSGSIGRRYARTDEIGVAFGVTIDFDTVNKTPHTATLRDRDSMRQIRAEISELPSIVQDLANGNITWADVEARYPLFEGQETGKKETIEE


Legend:
[1] = target: T3, PTPRG, endogenous in H929 multiple myeloma cells (human, UniProt P23470 20-1445); assay: flow cytometry, IgG1 on H929 cells
T3 construct: Native protein on H929 cells (flow cytometry, siRNA knockdown) and in H929 lysates (IP/MS); also called phosphatase receptor type γ
T3 sequence (P23470 20-1445 limits assumed): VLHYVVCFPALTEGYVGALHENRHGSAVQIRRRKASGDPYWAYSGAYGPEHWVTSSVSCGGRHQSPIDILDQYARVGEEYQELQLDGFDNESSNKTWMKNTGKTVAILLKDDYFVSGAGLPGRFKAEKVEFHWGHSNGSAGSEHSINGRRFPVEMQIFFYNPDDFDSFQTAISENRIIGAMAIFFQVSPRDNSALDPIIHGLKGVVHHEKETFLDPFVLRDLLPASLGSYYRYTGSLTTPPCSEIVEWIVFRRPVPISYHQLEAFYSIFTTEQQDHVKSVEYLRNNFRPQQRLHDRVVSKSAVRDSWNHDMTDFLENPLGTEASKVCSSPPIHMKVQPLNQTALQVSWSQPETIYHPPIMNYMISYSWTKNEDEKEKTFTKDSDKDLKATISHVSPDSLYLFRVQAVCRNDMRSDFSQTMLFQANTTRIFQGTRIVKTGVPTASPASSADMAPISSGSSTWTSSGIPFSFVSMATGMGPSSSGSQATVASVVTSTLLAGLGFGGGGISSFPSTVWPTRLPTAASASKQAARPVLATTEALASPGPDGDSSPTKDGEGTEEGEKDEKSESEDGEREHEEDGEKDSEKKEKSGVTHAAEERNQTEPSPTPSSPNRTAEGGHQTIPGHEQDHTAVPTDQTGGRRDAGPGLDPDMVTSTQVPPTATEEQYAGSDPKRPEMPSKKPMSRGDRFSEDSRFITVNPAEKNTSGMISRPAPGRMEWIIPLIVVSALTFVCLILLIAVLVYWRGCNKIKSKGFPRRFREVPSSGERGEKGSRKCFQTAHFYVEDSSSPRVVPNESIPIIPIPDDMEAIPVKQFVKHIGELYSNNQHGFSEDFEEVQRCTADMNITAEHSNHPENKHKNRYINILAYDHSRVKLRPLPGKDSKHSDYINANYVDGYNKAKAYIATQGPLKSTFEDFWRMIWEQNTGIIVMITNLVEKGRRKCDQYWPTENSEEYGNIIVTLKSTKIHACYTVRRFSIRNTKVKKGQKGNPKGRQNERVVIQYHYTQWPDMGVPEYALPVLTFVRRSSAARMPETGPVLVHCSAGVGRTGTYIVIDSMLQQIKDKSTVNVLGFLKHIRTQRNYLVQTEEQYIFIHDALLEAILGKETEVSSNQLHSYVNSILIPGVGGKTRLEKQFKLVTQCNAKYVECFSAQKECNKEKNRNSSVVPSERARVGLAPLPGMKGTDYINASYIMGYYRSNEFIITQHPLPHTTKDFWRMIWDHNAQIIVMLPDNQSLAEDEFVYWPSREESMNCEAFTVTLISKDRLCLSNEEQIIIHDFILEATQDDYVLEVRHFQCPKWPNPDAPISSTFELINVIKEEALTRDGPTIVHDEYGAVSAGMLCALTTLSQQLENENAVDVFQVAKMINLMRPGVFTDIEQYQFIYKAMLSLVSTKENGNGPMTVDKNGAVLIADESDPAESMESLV
Method: Staining protocol. Cells were harvested (5×10⁴ cells per sample), washed once with phosphate-buffered saline (PBS) at RT, and a second time with ice-cold FACS buffer (PBS, 0.5% BSA, 2 mM EDTA, 0.1% NaN₃). Cells were stained in 50 μL of primary antibody for 30 min on ice, washed twice with 100 μL FACS buffer, stained with 50 μL of diluted secondary antibody, washed two more times in FACS, and then resuspended in 50 μL FACS buffer. Samples were acquired on an Accuri C6 Plus or a BD FACSCanto II flow cytometer (both from BD Biosciences). Data were analyzed using FlowJo version 10 software. Primary antibodies: Fab (10 μg/mL), IgG1 (0.1 to 50 μg/mL), or 25 μL polyclonal Fabs from periplasmic extracts. Polyclonal Fabs were produced by diluting bacterial stocks by a factor of 100 in autoinduction media and incubating overnight to induce expression as previously described. […] Viability stains: DAPI (Cell Signaling Technology) or SYTOX AADvanced Dead Cell Stain (Thermo Fisher Scientific). Labeling: The panel of chimeric rabbit/human IgG1s was labeled using the Alexa Fluor 647 Labeling Kit (Thermo Fisher Scientific, #A20173) to facilitate single-step staining. Competition: Unlabeled IgG1s were added at saturating concentrations of 60 μg/mL to block the target receptors, incubating on ice for 30 min, followed by the addition of an equal volume of the Alexa Fluor 647 labeled antibody at 2 μg/mL, and the mixture was incubated on ice for another 30 min.

SELL (L-Selectin) = target: T1, SELL (L-Selectin); assay: ELISA on coated SELL-Fc-His
Method: Recombinant purified ECDs (50-150 ng) of each putative target protein were coated, incubated with 150 ng of the indicated primary antibody, and binding was detected using a peroxidase-conjugated anti-human Fab secondary antibody. Heatmap represents averages of technical triplicates. (8B) Target validation via siRNA knockdown. H929 cells were transfected with siRNA pools targeting the putative antibody targets ICAM1, CADM1, and PTPRG. Cells were then subjected to cognate IgG binding analysis via flow cytometry. (NT, non-targeting siRNA).
ELISA ELISA was conducted as described previously. Briefly, 50-150 ng of antigen was coated overnight in half-area 96-well plates at 4° C., blocked with 3% BSA at 37° C. for 1 h, and 150 ng of chimeric rabbit/human IgG1 was added, incubating for 2 h at 37° C. […] After incubating at 37° C. for 15 min-1 h (depending on intensity of controls), data were acquired using a SpectraMax M5 plate reader (Molecular Devices).

[2] = target: T2, GARS, endogenous in H929 multiple …; assay: flow cytometry, H929 + ICAM1 siRNA; None 455; surface target GARS putative
[3] = target: T2, GARS, endogenous in H929 multiple …; assay: flow cytometry, H929 + GARS siRNA (siRNA against the putative target); None 452
[4] = target: T2, GARS, endogenous in H929 multiple …; assay: flow cytometry, H929 + vehicle; None 513; surface target GARS putative
[5] = target: T2, GARS, endogenous in H929 multiple …; assay: flow cytometry, H929 + CDH18 siRNA; None 443; surface target GARS putative
[6] = target: T2, GARS, endogenous in H929 multiple …; assay: flow cytometry, H929 + NT Green siRNA; None 416; surface target GARS putative

Row | antibody-bound positive cells (%) [1] | Binder | binding result (SELL (L-Selectin)) | also measured
1 | 99.8% | HW-42 chimeric rabbit-human IgG1 LA/LA/PG (antibody, V domains shown, Fc-silenced (L234A/L235A/P329G) IgG1, lambda; Alexa Fluor 647-labeled in single-step flow cytometry; Cluster C-1) VH: QSVKESEGGLFKPADTLTLTCTVSGFSLSSNEISWVRQAPGEGLEYIGIIDTGGRAYYAVWARSRSTITRNTNLNTVTLKMTSLTAADTATYFCARGGVDTEWYAFSSWGPGTLVTVPS VL: SFVLTQPASVQVNLGQTVSLTCTADTLSRRYASWYQQKPGQAPVLLIFRDTSRPSGVPDRFSGSSSGDTATLTISGAQAGDEADYYCATSDGSGSNYQYVFGGGTQLTVTG | no binding (tested: 150 ng IgG1 per well) | –
2 | – | HW-101 chimeric rabbit-human IgG1 LA/LA/PG (antibody, V domains shown, Fc-silenced (L234A/L235A/P329G) IgG1, lambda; Alexa Fluor 647-labeled in single-step flow cytometry; Cluster C-97) VH: QEQLVESGGRLVTPGTPLTLTCKASGFSLGKYDMSWVRQAPGKGLEWIGTIYAGSGSTWYASWAKGRFTISKTSTTVDLKMTSLTTEDTATYFCARDFLGVNSIWGPGTLVTISS VL: SFVLTQPASVQVNLGQTVSLTCTADTLSRSYASWYQQKPDQAPVLLIHRDTSRPSGVPDRFSGSNSGNTATLTISGAQAGDEADYYCATSDGSGSNFHFVFGGGTQLTVTG | no binding (tested: 150 ng IgG1 per well) | –
3 | 99.6% | HW-25 chimeric rabbit-human IgG1 LA/LA/PG (antibody, V domains shown, Fc-silenced (L234A/L235A/P329G) IgG1, lambda; Alexa Fluor 647-labeled in single-step flow cytometry; Cluster C-1) VH: QSLEESGGRLVTPGTPLTLTCTVSGFSLSSYAMGWVRQAPGKGLEWIGIIDSRGSTYYATWAKGRFTISKTSTTVDLKITSPTTEDTATYFCAREDSYYYDSFNLWGPGTLVTVSS VL: SFVLTQPASVQVNLGQTVSLTCTADTLSRRYASWYQQKPGQAPVLLIYRDTSRPSGVPDRFSGSSSGNTATLTISGAQAGDEADYYCATSDGSGSSYQCVFGGGTQLTVTG | no binding (tested: 150 ng IgG1 per well) | –
4 | 99.8% | HW-70 chimeric rabbit-human IgG1 LA/LA/PG (antibody, V domains shown, Fc-silenced (L234A/L235A/P329G) IgG1, lambda; Alexa Fluor 647-labeled in single-step flow cytometry; Cluster C-1) VH: QSLEESGGRLVTPGTPLTLTCTVSGFSLSSNAMSWVRQAPGKGLEWIGTIDGYGYTYYASWAKGRFTVSKTSTTVDLKITSPTTEDTATYFCAREIYLGSNFWGPGTLVTISS VL: SFVLTQPASVQVNLGQTVSLTCTADTLSRRYASWYQQKPGQAPVLLIYRDTSRPSGVPDRFSGSSSGNTATLTISGAQAGDEADYYCATADGSGSSYQFVFGGGTQLTVTG | no binding (tested: 150 ng IgG1 per well) | –
5 | – | HW-28 chimeric rabbit-human IgG1 LA/LA/PG (antibody, V domains shown, Fc-silenced (L234A/L235A/P329G) IgG1, lambda; Alexa Fluor 647-labeled in single-step flow cytometry; Cluster C-45) VH: QKQLVESGGRLVTPGTPLTLTCTASGFSLSSNAMSWVRQAPGEGLQWIGTISSGGSTYYASWAKGRFTISKTSTTVTLKMTSLTTEDTATYFCARGADLHRLWGPGTLVTVSS VL: SFVLTQPASVQVNLGQTVSLTCTGKPLSRSFASWYQQKPGQAPVLVIYRDTSRPSGVPDRFSGSSSGNTATLTISGAQAGDEADYYCATSDGSGSSYQYVFGGGTQLTVTG | – | mAb binding (MFI) [2]: 33900; mAb binding (MFI) [3]: 170000; mAb binding (MFI) [4]: 44400; mAb binding (MFI) [5]: 164000; mAb binding (MFI) [6]: 50700
6 | 100% | HW-17 chimeric rabbit-human IgG1 LA/LA/PG (antibody, V domains shown, Fc-silenced (L234A/L235A/P329G) IgG1, lambda; Alexa Fluor 647-labeled in single-step flow cytometry; Cluster C-1) VH: QSLGESRGRLVTPDETLTLTCTVSGIDLSSNAMSWVRQAPGEGLEWIGTINTGGRAYYASWAKGRFTISRTSTTVDLKMTSLTTEDTATYFCARERYSDGRAYDIWGPGTLVTISS VL: SFVLTQPASVQVNLGQTVSLTCTADTLSRRYASWYQQKPGQAPVLLIYTDSNRPSGIPDRFSGSSSGNTATLTISGAQAGDEADYYCATDDGSGSIYQYVFGGGTQLTVTG | no binding (tested: 150 ng IgG1 per well) | –
7 | 100% | HW-1 chimeric rabbit-human IgG1 LA/LA/PG (antibody, V domains shown, Fc-silenced (L234A/L235A/P329G) IgG1, lambda; Alexa Fluor 647-labeled in single-step flow cytometry; Prototype of cluster C-1) VH: QSLEESGGGLFKPTDTLTLTCTASGFSLGSSYAISWVRQAPGKELEWIGTIDSGRAYYARWAKSRSTITRNTNENTVTLKMTSLTAADTATYFCARDLIPTYSQDIWGPGTLVTISS VL: SFVLTQPASVQVNLGQTVSLTCTADTLSRRYASWYQQKPGQAPVLLIYRDTSRPSGVPDRFSGSSSGNTATLTISGAQAGDEADYYCATSDGSGNSYQYVFGGGTQLTVTS | no binding (tested: 150 ng IgG1 per well) | –
8 | – | HW-97 chimeric rabbit-human IgG1 LA/LA/PG (antibody, V domains shown, Fc-silenced (L234A/L235A/P329G) IgG1, lambda; Alexa Fluor 647-labeled in single-step flow cytometry; Prototype of cluster C-97) VH: QKQLVESGGRLVTPGTPLTLTCTVTGIDLSSHGMSWVRQAPGKGLEWIGVIYPSGSTWYASWARGRFTISKTSTTVDLKMTSLTTEDTATHFCARGDVGGADNNIWGPGTLVTVSS VL: SFVLTQPASVQVDLGQTVSLTCTAETLSRSYASWYQQKPGQAPVLLIYRDTSRPSGVPDRFSGSSSGNTATLTISGAQAGDEADYYCATSDGSGSSYQYVFGGGTQLTVTG | no binding (tested: 150 ng IgG1 per well) | –
9 | – | HW-113 chimeric rabbit-human IgG1 LA/LA/PG (antibody, V domains shown, Fc-silenced (L234A/L235A/P329G) IgG1, lambda; Alexa Fluor 647-labeled in single-step flow cytometry) VH: QKQLVESGGGLVQPGGSLTLTCTVSGFSLNKYYMGWFRQAPGKGLEWIGVISRSGDTYYSSWAKGRFTISKASTTVDLRITSPTTEDTATYFCARDASSPGFHGDRLDLWGQGTLVTVSS VL: SFVLTQPASVQVNLGQTVSLTCTADTLSRSYASWYQQKPGQAPVLLIYRDTSRPSGVPDRFSGSSSGNTATLTISGAQAGDEADYYCATSDGIGSNYLWVFGGGTQLTVTG | no binding (tested: 150 ng IgG1 per well) | –
10 | – | TH9-0022 (antibody, human IgG1, kappa, L234A L235A, V domains shown, also called TH9-022; negative control) VH: QSLEESGGRLVTPGTPLTLTCTVSGFSLSSYAMNWVRQAPGKGLEWIGIINSYGSTYYASWAKGRFTISKTSTTVDLKITSPTTEDTATYFCARVTYDSYGYGYAPYGMDLWGPGTLVTVSS VL: LVMTQTPSSTSNAVGGTVTIKCQASQSIGNVLAWYQQKPGQPPKLLIYAASTLASGVPSRVGGSRSGTEYTLTISGVQREDAATYYCLGSDSDSDIAFGGGTELEILR | no binding (tested: 150 ng IgG1 per well) | –
11 | 2.7% | TH9-0022 (antibody, human IgG1, kappa, L234A L235A, V domains shown, also called TH9-022; negative control IgG1) VH: QSLEESGGRLVTPGTPLTLTCTVSGFSLSSYAMNWVRQAPGKGLEWIGIINSYGSTYYASWAKGRFTISKTSTTVDLKITSPTTEDTATYFCARVTYDSYGYGYAPYGMDLWGPGTLVTVSS VL: LVMTQTPSSTSNAVGGTVTIKCQASQSIGNVLAWYQQKPGQPPKLLIYAASTLASGVPSRVGGSRSGTEYTLTISGVQREDAATYYCLGSDSDSDIAFGGGTELEILR | – | –

Source: patent publication US20260049134A1 (UNIVERSITY OF FLORIDA RESEARCH FOUNDATION, published 2026)
